The record followed here is the supplement of paper PMC10567573.

B1: NCK2 (parent)
chain: YVERKNSLKKGSLVKNLKDTLGLG
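Note: lentivirally expressed fusions sorted by FACS into six bins by GFP to DsRed ratio, PSI derived from sequencing read proportions per bin multiplied by bin number.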

Variants of B1 are the subject of this data set. The data set can be described thus: protein stability index of a GFP-peptide fusion (GPS, HEK-293T) (PSI 1-6); higher = more stable. Conditions: c terminus: a fixed tail appended.
As to YVERKNSLKKGSLVKNLKPTLGLG [D19P], the protein stability index came out at 1.95.

YVERKNSLKKGSLVKELKDTLGLG [N16E]: the protein stability index amounted to 2.73.

As to YVERKNSLKKGSLVKRLKDTLGLG [N16R], the protein stability index was 1.98.

Regarding YVERKNSLKKGSLVKVLKDTLGLG [N16V], the protein stability index was 1.83.

For YVERKNSLKKGSLVKLLKDTLGLG [N16L], the protein stability index came out at 2.14.

Consider YVERKNSLCKGSLVKNLKDTLGLG [K9C], for which the protein stability index stood at 1.94.

For the variant YVERKNSLAKGSLVKNLKDTLGLG [K9A], the protein stability index turned out to be 2.15.

In the case of YVERKNSLIKGSLVKNLKDTLGLG [K9I], the protein stability index was determined as 2.51.

With YVERKNSLHKGSLVKNLKDTLGLG [K9H], the protein stability index turned out to be 2.1.

YVERKNSLQKGSLVKNLKDTLGLG [K9Q]: the protein stability index amounted to 2.32.

For the variant YVERKNSLPKGSLVKNLKDTLGLG [K9P], the protein stability index came to 2.05.

For the variant YVERKNSLEKGSLVKNLKDTLGLG [K9E], the protein stability index was found to be 2.59.

As to YVERKNSLKKGSLVKNLKDTLDLG [G22D], the protein stability index was 2.21.

For YVERKNSLKKGSLVKNLKDTLCLG [G22C], the protein stability index is 2.01.

As to YVERKNSLKKGSLVKNLKDTLELG [G22E], the protein stability index was determined as 2.34.

Turning to YVERKNSLKKGSLVKNLKDTLWLG [G22W], the protein stability index was determined as 2.56.

Consider YVERKNSLKKGSLVKNLKDTLPLG [G22P], for which the protein stability index was determined as 2.44.

Turning to YVERKNSLKKGSLVKNLKDTLGLT [G24T], the protein stability index was 2.36.

On to YVERKNSLKKGSLVKNLKDTLGLM [G24M], for which the protein stability index stood at 2.09.

Take YVERKNSLKKGSLVKNLKDTLGLC [G24C]: the protein stability index came out at 2.2.

Take YVERKNSLKKGSLVKNLKDTLGLQ [G24Q]: the protein stability index is 2.59.

YVERKNSLKKGSLVKNLKDTLGLS [G24S]: the protein stability index was found to be 2.58.

Consider YVERKNSLKKGSLTKNLKDTLGLG [V14T], for which the protein stability index amounted to 2.66.

With YVERKNSLKKGSLEKNLKDTLGLG [V14E], the protein stability index was 2.16.

For the variant YVERKNSLKKGSLDKNLKDTLGLG [V14D], the protein stability index was 2.84.

Take YVERKNSLKKGSLRKNLKDTLGLG [V14R]: the protein stability index amounted to 2.6.

For the variant YVERKNSLKKGSLYKNLKDTLGLG [V14Y], the protein stability index stood at 1.98.

In the case of YVERKNSLKKGSLAKNLKDTLGLG [V14A], the protein stability index turned out to be 2.53.

YVERKNSLKKGSLLKNLKDTLGLG [V14L]: the protein stability index was 2.31.

Turning to YVERKNSLKKGSLSKNLKDTLGLG [V14S], the protein stability index was 2.07.

As to YVERKNSLKKGSLKKNLKDTLGLG [V14K], the protein stability index was 2.25.

Regarding YVERKNKLKKGSLVKNLKDTLGLG [S7K], the protein stability index is 2.84.

Consider YVERKNGLKKGSLVKNLKDTLGLG [S7G], for which the protein stability index was 1.99.

For the variant YVERKNYLKKGSLVKNLKDTLGLG [S7Y], the protein stability index was 1.74.

Consider YVERKNQLKKGSLVKNLKDTLGLG [S7Q], for which the protein stability index amounted to 2.15.

As to YVERKNPLKKGSLVKNLKDTLGLG [S7P], the protein stability index is 1.82.

As to YVERKNRLKKGSLVKNLKDTLGLG [S7R], the protein stability index came to 2.22.

Regarding YVERKNILKKGSLVKNLKDTLGLG [S7I], the protein stability index worked out at 1.86.

Turning to YVERKNSLKKGSSVKNLKDTLGLG [L13S], the protein stability index was 2.54.

Take YVERKNSLKKGSWVKNLKDTLGLG [L13W]: the protein stability index is 2.04.

Consider YVERKNSLKKGSVVKNLKDTLGLG [L13V], for which the protein stability index is 2.64.

As for YVERKNSLKKGSHVKNLKDTLGLG [L13H], the protein stability index worked out at 2.29.

On to YVERKNSLKKGSDVKNLKDTLGLG [L13D], for which the protein stability index turned out to be 2.8.

For the variant YVERKNSLKKGSMVKNLKDTLGLG [L13M], the protein stability index was determined as 2.22.

In the case of YVERKNSLKKGSLVKNLWDTLGLG [K18W], the protein stability index worked out at 1.8.

YVERKNSLKKGSLVKNLADTLGLG [K18A]: the protein stability index stood at 2.25.

YVERKNSLKKGSLVKNLFDTLGLG [K18F]: the protein stability index is 1.33.

Consider TVERKNSLKKGSLVKNLKDTLGLG [Y1T], for which the protein stability index turned out to be 3.65.

As for DVERKNSLKKGSLVKNLKDTLGLG [Y1D], the protein stability index was 4.13.

Turning to NVERKNSLKKGSLVKNLKDTLGLG [Y1N], the protein stability index was determined as 3.71.

As to YVERKNSLKKGSLVKNLKDTWGLG [L21W], the protein stability index amounted to 2.12.

For YVERKNSLKKGSLVKNLKDTTGLG [L21T], the protein stability index was 2.44.

With YVERKNSLKKGSLVKNLKDTDGLG [L21D], the protein stability index worked out at 2.81.

On to YVERKNSLKGGSLVKNLKDTLGLG [K10G], for which the protein stability index was determined as 1.93.

In the case of YVERKNSLKTGSLVKNLKDTLGLG [K10T], the protein stability index came out at 1.82.

YVERKNSLKPGSLVKNLKDTLGLG [K10P]: the protein stability index came to 1.88.

In the case of YVERKNSLKQGSLVKNLKDTLGLG [K10Q], the protein stability index came to 2.59.

With YVERKNSLKKGSLVKNLKDTLGAG [L23A], the protein stability index worked out at 2.96.

As to YVERKNSLKKGSLVKNLKDTLGFG [L23F], the protein stability index was determined as 2.52.

Regarding YVERKNSLKKKSLVKNLKDTLGLG [G11K], the protein stability index turned out to be 2.9.

On to YVERKNSLKKPSLVKNLKDTLGLG [G11P], for which the protein stability index was found to be 2.11.

Regarding YVERKNSLKKQSLVKNLKDTLGLG [G11Q], the protein stability index worked out at 3.13.

Turning to YVERKNSLKKTSLVKNLKDTLGLG [G11T], the protein stability index is 2.06.

Turning to YVERKNSLKKYSLVKNLKDTLGLG [G11Y], the protein stability index was 1.59.

Turning to YVERKNSLKKASLVKNLKDTLGLG [G11A], the protein stability index came to 2.18.

With YVERKNSLKKMSLVKNLKDTLGLG [G11M], the protein stability index worked out at 1.8.

With YDERKNSLKKGSLVKNLKDTLGLG [V2D], the protein stability index came to 3.38.

As to YWERKNSLKKGSLVKNLKDTLGLG [V2W], the protein stability index is 2.49.

In the case of YLERKNSLKKGSLVKNLKDTLGLG [V2L], the protein stability index turned out to be 2.71.

Take YYERKNSLKKGSLVKNLKDTLGLG [V2Y]: the protein stability index amounted to 3.01.

On to YGERKNSLKKGSLVKNLKDTLGLG [V2G], for which the protein stability index turned out to be 3.19.

Consider YVERKNSLKKGSLVKNMKDTLGLG [L17M], for which the protein stability index was 2.78.

For the variant YVERKNSLKKGSLVKNVKDTLGLG [L17V], the protein stability index stood at 2.8.

On to YVERKNSLKKGSLVKNNKDTLGLG [L17N], for which the protein stability index came to 2.77.

YVERKNSLKKGSLVKNIKDTLGLG [L17I]: the protein stability index is 2.43.

YVERKNSLKKGSLVKNQKDTLGLG [L17Q]: the protein stability index was 3.16.

For the variant YVERKNSLKKGSLVKNAKDTLGLG [L17A], the protein stability index worked out at 2.62.

As for YVERKNSLKKGSLVKNPKDTLGLG [L17P], the protein stability index was 2.13.

Take YVERKNSLKKGSLVKNYKDTLGLG [L17Y]: the protein stability index was 2.73.

As for YVERKNSLKKGSLVKNGKDTLGLG [L17G], the protein stability index was determined as 2.88.

As to YVERKNSLKKGSLVKNDKDTLGLG [L17D], the protein stability index is 2.92.

For YVERKNSLKKGSLVKNLKDNLGLG [T20N], the protein stability index was determined as 2.62.

Consider YVERKNSLKKGSLVKNLKDRLGLG [T20R], for which the protein stability index came to 1.97.

In the case of YVERKNSLKKGSLVKNLKDGLGLG [T20G], the protein stability index turned out to be 2.45.

For YVERKNSLKKGSLVKNLKDALGLG [T20A], the protein stability index turned out to be 2.33.

Consider YVERKNSLKKGSLVANLKDTLGLG [K15A], for which the protein stability index came out at 2.09.

With YVERKNSLKKGSLVINLKDTLGLG [K15I], the protein stability index came out at 1.77.

Take YVERKNSLKKGSLVGNLKDTLGLG [K15G]: the protein stability index turned out to be 2.49.

As for YVERKNSLKKGSLVPNLKDTLGLG [K15P], the protein stability index is 1.99.

For YVERKNSLKKGSLVENLKDTLGLG [K15E], the protein stability index was 2.81.

On to YVERKNSLKKGSLVTNLKDTLGLG [K15T], for which the protein stability index is 2.56.

In the case of YVERKNSLKKGSLVYNLKDTLGLG [K15Y], the protein stability index amounted to 1.91.

Take YVERENSLKKGSLVKNLKDTLGLG [K5E]: the protein stability index was found to be 2.92.

Consider YVERANSLKKGSLVKNLKDTLGLG [K5A], for which the protein stability index stood at 2.12.
